Assay results: IntAct's records for PubMed 16977309

Key:
gga3_human GGA3 = target: T1, gga3_human GGA3 (UniProt Q9NZ52)
T1 sequence: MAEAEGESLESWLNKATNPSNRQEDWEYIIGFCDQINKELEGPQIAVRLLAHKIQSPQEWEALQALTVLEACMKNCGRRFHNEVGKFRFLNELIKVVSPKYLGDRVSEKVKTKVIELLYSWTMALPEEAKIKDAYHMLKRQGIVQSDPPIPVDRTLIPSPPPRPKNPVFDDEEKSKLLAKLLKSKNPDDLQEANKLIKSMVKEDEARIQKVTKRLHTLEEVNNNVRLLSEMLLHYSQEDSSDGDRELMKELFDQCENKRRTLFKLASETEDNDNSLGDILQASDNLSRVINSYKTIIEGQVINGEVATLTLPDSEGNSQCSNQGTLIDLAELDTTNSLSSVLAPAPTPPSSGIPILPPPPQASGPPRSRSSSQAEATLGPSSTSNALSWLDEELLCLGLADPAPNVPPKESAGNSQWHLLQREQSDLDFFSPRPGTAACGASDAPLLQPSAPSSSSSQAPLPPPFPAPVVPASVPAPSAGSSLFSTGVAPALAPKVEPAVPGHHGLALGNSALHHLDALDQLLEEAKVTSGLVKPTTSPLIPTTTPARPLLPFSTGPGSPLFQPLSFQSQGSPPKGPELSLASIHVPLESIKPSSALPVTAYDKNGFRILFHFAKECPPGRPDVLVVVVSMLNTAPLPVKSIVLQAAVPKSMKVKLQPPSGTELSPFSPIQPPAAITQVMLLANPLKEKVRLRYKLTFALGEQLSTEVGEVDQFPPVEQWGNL

csk21_rat Csnk2a1 = csk21_rat Csnk2a1 (UniProt P19139)
Sequence of csk21_rat Csnk2a1 (P19139 whole entry, looked up): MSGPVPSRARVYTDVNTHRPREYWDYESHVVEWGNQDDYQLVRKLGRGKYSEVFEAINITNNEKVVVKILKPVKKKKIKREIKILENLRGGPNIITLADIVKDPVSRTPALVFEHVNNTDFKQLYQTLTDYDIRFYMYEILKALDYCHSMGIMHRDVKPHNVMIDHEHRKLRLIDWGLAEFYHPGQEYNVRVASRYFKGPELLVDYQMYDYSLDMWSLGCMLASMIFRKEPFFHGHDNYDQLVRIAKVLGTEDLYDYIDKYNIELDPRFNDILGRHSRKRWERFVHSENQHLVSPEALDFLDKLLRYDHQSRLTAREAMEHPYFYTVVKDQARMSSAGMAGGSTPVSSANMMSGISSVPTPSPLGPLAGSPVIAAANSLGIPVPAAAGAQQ

csk2b_human CSNK2B = csk2b_human CSNK2B (UniProt P67870)
Sequence of csk2b_human CSNK2B (P67870 whole entry): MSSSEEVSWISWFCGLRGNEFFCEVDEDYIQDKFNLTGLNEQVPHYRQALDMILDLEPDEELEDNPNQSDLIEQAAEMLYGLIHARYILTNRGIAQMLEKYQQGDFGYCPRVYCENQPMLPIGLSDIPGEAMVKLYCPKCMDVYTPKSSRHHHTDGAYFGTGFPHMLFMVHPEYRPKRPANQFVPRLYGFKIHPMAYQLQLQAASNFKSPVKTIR

csk21_human CSNK2A1 = csk21_human CSNK2A1 (UniProt P68400)
Sequence of csk21_human CSNK2A1 (P68400 whole entry, looked up): as the sequence (P19139 whole entry, looked up) above, with S335G, A337S, G338S, A340P, S378P, I381M counted along it

| Substance | effect of a mutation on the interaction (gga3_human GGA3) | effect of a mutation on the interaction (csk21_rat Csnk2a1) | effect of a mutation on the interaction (csk2b_human CSNK2B) | effect of a mutation on the interaction (csk21_human CSNK2A1) |
| --- | --- | --- | --- | --- |
| Phosphofurin acidic cluster sorting protein 1 (Homo sapiens) (from UniProt Q6VY07) K249W | disrupting interaction | – | – | – |
| Phosphofurin acidic cluster sorting protein 1 (Homo sapiens) (from UniProt Q6VY07) R196A;R197A;K198A;R199A;Y200A | – | disrupting interaction strength | disrupting interaction | disrupting interaction |
| Phosphofurin acidic cluster sorting protein 1 (Homo sapiens) (from UniProt Q6VY07) Y251A | disrupting interaction | – | – | – |
